Assay results as given in PMC4250934.

Legend:
Assay in all cases: AUC
[1] = molecular target: SODA_(BSn5), C-terminal SODA domain of SOD_(BSn5) (Bacillus subtilis BSn5)
[2] = molecular target: SODA_(NG2215), NTD-deleted form of SOD_(NG2215) (SODA functional domain) (Geobacillus thermodenitrificans NG80-2)
[3] = molecular target: SOD_(BSn5), Fe/Mn superoxide dismutase from Bacillus subtilis BSn5 (Bacillus subtilis BSn5)
[4] = molecular target: SOD_(NG2215), Fe/Mn superoxide dismutase (cambialistic SOD) from Geobacillus thermodenitrificans NG80-2 (Geobacillus thermodenitrificans NG80-2)

With “SODA_(BSn5), C-terminal SODA domain of SOD_(BSn5) (domain or fragment)” the stoichiometry N [1] was 2.
“SODA_(NG2215), NTD-deleted form of SOD_(NG2215) (SODA functional domain) (domain or fragment)” was tested, and the stoichiometry N [2] was 4.
Work on “SOD_(BSn5), Fe/Mn superoxide dismutase from Bacillus subtilis BSn5 (enzyme)” yielded a stoichiometry N [3] of 2.
In the case of “SOD_(NG2215), Fe/Mn superoxide dismutase (cambialistic SOD) from Geobacillus thermodenitrificans NG80-2 (enzyme)”, the stoichiometry N [4] is reported as 4.
